Measurements taken from patent US20110207917A1.

Target: SAM-6 Receptor (SAM-6/R) glycoprotein, about 80 kDa Grp78 variant of tumor cells (human) (UniProt P11021)
Assay: FACS on BXPC-3 cells transfected with Grp78 siRNA

SAM-6 Receptor (SAM-6/R) glycoprotein, about 80 kDa Grp78 variant of tumor cells (human), sequence (P11021 18-654, change not shown): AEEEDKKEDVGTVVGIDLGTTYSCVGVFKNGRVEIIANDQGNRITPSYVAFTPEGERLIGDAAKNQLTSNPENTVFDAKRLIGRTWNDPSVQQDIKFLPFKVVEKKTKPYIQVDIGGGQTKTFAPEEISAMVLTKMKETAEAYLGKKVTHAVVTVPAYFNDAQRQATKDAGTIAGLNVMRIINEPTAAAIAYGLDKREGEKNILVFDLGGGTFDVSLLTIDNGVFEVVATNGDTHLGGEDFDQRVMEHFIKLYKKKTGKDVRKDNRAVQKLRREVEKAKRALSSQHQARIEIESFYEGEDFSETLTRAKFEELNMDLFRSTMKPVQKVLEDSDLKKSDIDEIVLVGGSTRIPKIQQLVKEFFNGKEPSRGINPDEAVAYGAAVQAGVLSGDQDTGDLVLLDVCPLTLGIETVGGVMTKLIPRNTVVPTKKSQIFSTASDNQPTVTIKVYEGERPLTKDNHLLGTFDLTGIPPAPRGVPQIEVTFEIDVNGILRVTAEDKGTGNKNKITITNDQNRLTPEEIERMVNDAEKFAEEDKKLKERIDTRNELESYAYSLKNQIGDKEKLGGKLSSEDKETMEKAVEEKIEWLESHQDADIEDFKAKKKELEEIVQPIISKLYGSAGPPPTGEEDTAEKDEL

For anti-GRP78 antibody clone ET-21 (Sigma), the % reduction of binding after Grp78 siRNA transfection was 76%.
